Data on one protein can be found in paper PMC8540780, “Biochemical and Molecular Characterization of the Rice Chalcone Isomerase Family” (Plants, 2021).

Substrate in series [1]: O=C(/C=C/c1ccc(O)cc1)c1ccc(O)cc1O
Briefly: purified protein. The conditions noted are these: 50 mM Tris pH 7.5, 500 µg enzyme (b24 prints 440 µg/mL for the activity test), substrate 1–50 µM.

Substrate in series [2]: O=C(/C=C/c1ccc(O)cc1)c1c(O)cc(O)cc1O
Briefly: purified protein. Conditions: 50 mM Tris pH 7.5, 0.1 µg enzyme per mL, substrate 1–50 µM. Format: biochemical, Oryza sativa.

B1: OsCHI3 (Oryza sativa Japonica Group) (protein)
chain: MAAVSEVEVDGVVFPPVARPPGSGHAHFLAGAGVRGVEIAGNFIKFTAIGVYLEEGAAVPALAKKWAGKSADELAADAAFFRDVVTGDFEKFTRVTMILPLTGEQYSDKVTENCVAAWKAAGVYTDAEGAAADKFKEAFKPHSFPPGASILFTHSPPGVLTVAFSKDSSVPEGAVAAAAIENRALCEAVLDSIIGEHGVSPAAKRSIAARVSQLLKAESTGDVAAAEPAPVSA
notes: 233 aa; 28 kDa on SDS-PAGE
In the case of B1, in the series “purified protein [1]”, the Km is on record as 50.95 ± 4.83 µM, the Vmax is 0.000212 µmol/min/mg, the kcat came out at 9.21e-05 s⁻¹ and the kcat/Km is 1.81 M⁻¹ s⁻¹. In addition, in the series “purified protein [2]”, the Km came out at 11.60 ± 0.78 µM, the Vmax came to 160 µmol/min/mg, the kcat came out at 69.3 s⁻¹ and the specificity constant (kcat/Km) was found to be 5.98e+06 M⁻¹ s⁻¹.
